Data on one molecule can be found in US20230203142A1, “TREATMENT OF METABOLIC DISORDERS THROUGH THE TARGETING OF A NOVEL CIRCULATING HORMONE COMPLEX” (The President and Fellows of Harvard College, priority 2020, published 2023).

One assay concerns INS1 cells. The experiment in a line: Glucose-stimulated insulin secretion (GSIS), INS1 cells. The format is cell-based, rat. As to the method: This finding was recapitulated in both primary human islets from multiple non-diabetic donors (FIG. 6B), as well as INS1 cells (FIG. 6C). Human islets from review board approved healthy donors were isolated using the Edmonton protocol and provided by the IsletCore and Clinical Islet Laboratory (University of Alberta, Canada). Donors with a BMI<25 and HbA1c<6.0% were used for experiments. Islets were hand-picked three times and cultured at 37° C. in RPMI media with 10% FBS and 1% Penicillin/Streptomycin overnight before use. For INS1 cells, cells were plated at 8000 cells/well in 96-well plates and incubated overnight prior to experimentation. Insulin secretion assay was performed as above using 200 μl/well for each treatment. Cells were lysed using 80 μl ultrapure water and flash freezing. For siRNA experiments, INS1 cells were allowed to reach confluency before transfection of siRNA (Horizon Discovery; L-090381-02-0005) using Lipofectamine 3000 (Thermo Fischer; L3000015) according to manufacturer protocol for 48 hours prior to assays.
As additional controls, it was explored whether lipid binding was required for FABP4 action. […] FABP4 inhibitor studies were performed using BMS-309403 (10 nM; Sigma #BM0015).
To further elucidate the role of purinergic receptors in this signaling process, a potent and selective P2Y1 inhibitor, MRS2179 (Baurand et al., 2001) was utilized. […]

Assay [1] relates to diet-induced obese (DIO) mice. The assay can be described thus: a-Ab treatment of diet-induced obese mice. The format is in vivo, mouse. The procedure:
Given the essential role for appropriate beta cell function and insulin secretion in the pathogenesis of diabetes, the pancreata of FABP4 deficient (FABP4^−/−) mice were examined for beta cell mass and insulin content. Animal care and experimental procedures were performed with approval from animal care committees of Harvard University. All mice were housed on a 12-hour light/dark cycle with ad libitum access to chow (PicoLab 5058 LabDiet) and water. FABP4−/− and WT mice were littermates obtained from heterozygous breeding. High fat diet (HFD) fed mice were provided ad libitum access to HFD (60% kcal from fat; Research Diets Inc., D12492i) for 14 weeks beginning at 4 weeks of age. Pancreata and isolated islets were obtained from 7-8-week-old male mice. Blood was collected every other week for 6 hour fasting plasma insulin and FABP4 levels. For acute FABP4 treatment, 10 μg of human recombinant FABP4 (produced in-house) or sterile PBS was injected intraperitoneally. Blood was collected from the tail vein at 0, 10, 20, 30, 60, 120, 240- and 360-minutes post injection for measurement of blood glucose, plasma insulin, and FABP4 levels.
(§1) For the immunohistochemistry, pancreata were dissected and fixed in 10% zinc buffered formalin for 24-48 hrs before being washed and stored in 70% ethanol. Samples were paraffin embedded, and sectioned in steps 250 μm apart. Immunostaining for insulin and glucagon was performed as described previously (Prentice et al., 2014; Rezania et al., 2014). Images of each section were acquired using Aperio Imagescope at 20× magnification. The beta- or alpha-cell area was calculated by using positive pixel count analysis (Aperio ImageScope). Islet number and size was determined by manually circling insulin positive clusters in the Aperio ImageScope software. Two blinded individuals independently performed manual analysis and insulitis scoring.
Antibodies were stored at 4° c. at a stock concentration of 10 mg/ml in PBS. WT diet-induced obese (DIO) male mice were treated twice weekly with 33 mg/kg bodyweight of a-Ab or control antibody (c-Ab) in a final volume of 150 μl, injected subcutaneously for 3 weeks after 12 weeks of high fat breeding, as described (see US20160319003, incorporated herein by reference, and Burak et al., 2015). […] Glucose tolerance test were performed as previously described (Liu, Y. et al. Cell Rep 14, 2889-2900). Briefly, both chow and high fat diet fed mice were evaluated simultaneously. Before intraperitoneal glucose tolerance tests, mice were fasted 16 hr. overnight, before injection of 0.75 g/kg body weight of glucose. Blood glucose was evaluated at 0, 15, 30, 45, 60, 90, and 120-min post-injection.
as §1, with “Pancreata were” for “For the immunohistochemistry, pancreata were”, “for insulin, glucagon, BrdU” for “for insulin”, “and Cleaved Caspase 3” for “and glucagon”

B1: a-Ab: monoclonal antibody previously reported as CA33; heavy chain SEQ ID NO 446, light chain SEQ ID NO 447; binds FABP4 and NDPK (antibody, listed as Homo sapiens)
heavy: QSVEESGGRLVTPGTPLTLTCTVSGFSLSTYYMSWVRQAPGKGLEWIGIIYPSGSTYCASWAKGRFTISKASTTVDLKITSPTTEDTATYFCARPDNDGTSGYLSGFGLWGQGLVTVSSAKTTPPSVYPLAPGSAAQTNSMVTLGCLVKGYFPEPVTVTWNSGSLSSGVHTFPAVLQSDLYTLSSSVTVPSSTWPSETVTCNVAHPASSTKVDKKIVPRDC
light: DVVMTQTPASVSEPVGGTVTIKCGASEDISRYLVWYQQKPGQPPKRLIYKASTLASGVPSRFKGSGSGTDFTLTISDLECDDAATYYCQCTYGTYAGSFFYSFGGGTEVVVERTDAAPTVSIFPPSSEQLTSGGASVVCFLNNFYPKDINVKWKIDGSERQNGVLNSWTDQDSKDCTYSMSSTLTLTKDEYERHNSYTCEATHKTSTSPIVKSFNRNEC
For the molecule B1, the “GSIS in the presence of the NDPK-ADK/FABP4 complex” value in the assay on INS1 cells is “rescued”. For the same molecule, the “beta cell proliferation, Ki67 staining” value in assay [1] (DIO model, three weeks) is listed as “small but significant increase”. In assay [1] (DIO model, vs controls), the “CC3 positive beta cells” value is reported as “profound reduction”. Moreover, in assay [1] (WT DIO mice, 33 mg/kg twice weekly s.c.), the “glycemic excursion during glucose tolerance test (GTT)” value was “improved”. The “6 hr fasting glucose levels” value in assay [1] (WT DIO mice, 33 mg/kg twice weekly s.c., three weeks) was “reduced”. Further, in assay [1] (pancreata of DIO mice, 3 weeks), the beta cell mass result is “trend towards increased” and the number of islets result is “increased”. In addition, the glucagon positive area result in assay [1] (pancreatic sections, DIO mice) is reported as “significant reduction”.
